Measurements reported in the nanobody polyreactivity screen of Harvey et al. (2022).

Experiment: yeast display, Sf9 membrane polyspecificity reagent, FACS + sequencing; frameworks hold sequencing errors
How it was run: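 Sorting gates, low and high (top ~1%), were placed on anti-HA fluorescence to track expression and on streptavidin fluorescence to track reagent binding. A clone's polyreactivity label is taken from the gate it came out of. The reagent was 10% biotinylated, detergent-solubilized Sf9 membrane, applied for 1 hour at 4 °C to galactose-induced yeast display cells.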

Sequence | polyreactivity (PSR sort gate)
QVQLVESGGGLVQAGGSLRLSCAASGRTFNRYAMGWYRQAPGKERELVAAINWSGGSTYYADSVKGRFTISRDNAKNTVYLQMNSLKPEDTAVYYCNAGLGKFPVKGGRRYRLDYWGQGTQVTVSS | low polyreactivity
QVQLVESGGGLVQAGGSLRLSCAASGSTFAWNAMGWYRQAPGKERELVAAISKSGGSTYYADSVKGRFTISRDHAKNTVYLQMNSLTPEDTAVYYCAARGTVYRRYGGSRYDYWGQGTQVTVSS | high polyreactivity
QVQLVESGGGLVQAGGSLRLSCAASGIIFYGNAMGWYRQAPGKERELVAAISWSGSSTYYADSVKGRFTISRDNAKNTVYLQMNSLKPEDTAVYYCNKATSSVRYLKYYYWGQGTQVTVSS | high polyreactivity
QVQLVESGGGLVQAGGSLRLSCAASGYIFHRYAMGWYRQAPGKERELVAAITWTGARTYYADSVKGRFTISRDNAKNTVYLQMNSLKPEDTAVYYAAPASYSFAKSGYWGQGTQVTVSS | high polyreactivity
QVQLVESGGGLVQAGGSLRLRCAASGLTFWGYPMGWYRQAPGKEREFVASITSGGGSTYYADSVKGRFTISRDNAKNTVYLQMNILNPEDTAVYYCNVDVHLYLYKSYTYRYYYWGQGTQVTVSS | low polyreactivity
QVQLVESGGGLVQAGGSLRLSCAASGSIITYYAMGWYRQAPGKERELVAAISSGGSTYYADSVKGRFTISRDNAKSTVYLQMNRLKPEDSAVYYCNADLLDYWSFILFDYWGQGSQVTVSS | high polyreactivity
QVQLVESGGGLVQAGGSLRLSCAASGIIFGYYAMGWYRQAPGKERELVAAISRRGGSTYYADSVKGRFTISRDNAKNTVYLQMNSLKPEDTAVYYCNKRRAAGGFPYDYWGQGTQVTVSS | high polyreactivity
QVQLVESGGGLVQAGGSLRLSCGASGSNFWPNTMGWYRPAPGKERELVAGISFGGGSTYFADSVKGRFTISRDNAKNTVYLEMNRQKPEDTAVYYCNADDPGYAGPWYWVKYDYWGKGTQVTVSS | low polyreactivity
QVQLQGSGGGLVQAGVSLRLSCAASGYIFQNVPMGWNRHAPGKERELVAGIDNATSTNYADSVNGRFTISLDNAKNTVYLQMNSLKPEDTAVYYCAAAGQADNTLGYWGQGTQVTVSS | low polyreactivity
QVQLVESGGGLVQAGGSLRLSCAASGSTFYGNAMGWSRQAPGKERELVAAIRWRGGRTYYADSVKGRFTISRDNAKNTVYLQMNSLKPEDTAVYYCNALPGVSHTQYDRVGYWGQGTQVTVSS | high polyreactivity
QVQLVESGGGLVQAGGSLRLSCGASGFTFRSYAMGWYRQAPGKEGELVATISSGGTTKYADSVQGRFTISRDNANNTVYLQMNSLKPEDTAVYYCAARTSVLGRNFNYWGQGTQVTVSS | high polyreactivity
QVQLVESGGGLVKAGGSLRLSCAATGFTLSWYDMGWYRPAPGKERELVATISRGGITYYADSVKGRFTISRDNAKNTVYLQMNSLKPEDTAVYYCAADYRYGWYRYDYWGQGTQVTVSS | high polyreactivity
QVQLVESGGGLVQAGGSLRLSCAASGFTFPVYVLGWYRQAPGKERELVAAISGGGGTSYADSVKGRFTISRDNAKNTVYLQMNSLKPEDTAVYYCAADYRTYVYVYGFRHFDYWGQGTQVTVSS | low polyreactivity
QVHLVDSGGGLVQAGGSLRLSCAASGSISYDNAMGWYRQAPGKERELVAAITFSGDSTNYADSVKGRFTISRDNAKNTVYLQMNSLKPEDTAVYYCAASQVSDTTRFGYWGQGTQVTVSS | low polyreactivity
QVQLVESGGGLVQAGGSLRLSCAASGSIFSTYAMGWYRQAPGKERELVAAISGSGGRTYYADSVKGRFTISRDNAKNTVYLQMNSLKPEDTAVYYCAADGGSVKTPGYYYWGQGTQVTVSS | high polyreactivity
QVQLVESGGGLVQAGGSLRLSCAASGSTFVYYAMGWYRQAPGKERELVAAITSRGGSTYYADSVKGRFTISRDNAKNTVYLQMNSLKPEDTAVYYCAKYAYSFPYNYWGQGTQVTVSS | high polyreactivity
QVQLVESGGGLVQAGGSLRLSCAASGRISSSYAMGWYRQAPGKERELVAAIDNSDDTTYYADSVKGRFTISLDNAKNTVYLQMNSLKPEDTAVYSCATLVYSSELGYWGQGTQVTVSS | high polyreactivity
QVQLVESGGGLVQAGGSLRLSCAASGNFFVLYAMGWYRQAPGKERELVASITSDGITYYADSGKGRFTISRDNAKNTVYLQMNSLKPEDTAVYYCAVDRSYRYLPRGDYWGQGTQVTVSS | low polyreactivity
QVLLQESGGGLVQAGGSLRLSCAASGSIFLFYTMGWNRQAPVKEREFVAGITLGTTTYNADSVKGRFTISRDNVKNTVYLQKNSLKPEDTAVYYCAVAVGHYTEFWYWGQGTQVTMSS | high polyreactivity
QDQLVESGGGLVQAGGSLRLSCAASGSIFRTYAMGWYRQAPGKERELVATITYSDGNTYYADSVKGRFTISRDNAKNTVYLQMNSLKPEDTAFYYSNADGIYASISGYRYDYWGQGTLVTVSS | low polyreactivity
QVQLVETAGGLVQAGGSLRLSSAASGRTFTLNAMGWYRQAPGKERELVATISRRGGSTYYADSVKGRFTISRDNAKNTVYLQMNSLNPEDTAVYYCNAGSSVLKYDYWGQGTEVTVSS | low polyreactivity
QVQLVESGGGLVQAGGSLRLSCAASGSTFKTYVMGWYRQAPGKERELVAGISDSGGTTYYADSVKGRFTISRDNAKNTVYLQMNSLKPEDTAVYFCNAAFGVYVATGDSFPWHKKFGYWGQGTQVTVSS | high polyreactivity

Sequence | polyreactivity (PSR sort gate)
QVQLVESVGGLVQAGGSLRLSSAASGFTFTRNTMGWYRQAPGKERELVAAITRGGSTNYADSVKGRFTISLDTAKNPVYLQMHSLKPEDTAVYYCAADAPFDSPYNYWGQGTQVTVSS | low polyreactivity
QVQLVESGGGLVQAGGSLRLSCAASGRTFIKYAMGWYRQAPGKERELVAAISRNGGSTNYADSVKGRFTISRDNAKNTVYLHMNSLKPEDTAVYYCAAVGTVSRTVGYNYWGQGTQVTVSS | high polyreactivity
QVQLVESGGGLVQAGGSLRLSCAASGSIFDYNAMGWYRQAPGKEREYVAANTWGSGSTYYADSVKGRFTNSRDNAKNTVYLQMNSLKPEDTAVYYCNADDYGGSTGRKGRYNYWGQGTQVTVSS | low polyreactivity
QVQLVESVGGLVQAGGSLRLSSAASGRIFVFNAMGWYRQAPGKERELVAAISRRGGSTYYADSVKGRFTISRDNAKNTVYLQMNSLNPEVTAVYYCAAVYPDYSSARYDYWGQGTQVTVSS | high polyreactivity
QVQLVETGGGLVQAGGSLRLSCAASGFIFPGNMGWDRQAPGKDRELVAAISWSGGSTRYADSVKGRFTISRDNAKNTVYLQMNSLKPEDTAVYYCAASLSGKRFTKRYYWGQGTQVTVSS | high polyreactivity
QVQLVESGGGLVQAGGSLRLSCAASGRTMDFNVMGWYRQAPGKERELVAAITWSGGSTYYSDSVKGRFTISRDNAKNTVYLQMNSLKPVDTAVYYCAKDLWYWARRYDYWGQGTQVTVSS | high polyreactivity
QVQLVESGGGLVQAGGSLRISCAASGRIFQHYAMGWYRQAPGKERELVAAISWRGGSTYYADSVKGRFTISRDNAKNTVFLLMNSLKPEDTAVYYCAAGYRGRIPGFDYWGQGTQVTVSS | high polyreactivity
QVQLVESGGGLVQAGGSLRLSCAASGFIFEKYTMGWYRQAPGKERELVAAITWNGGSTYYADSVKGRFTISRDNAKNTVYLQMNSLKPEDTAVYYCAARVGWNKRRYDYWGQGTQVTVSS | low polyreactivity
QVQLVESGGRLVQAGGILRLSCAASGSTFSPYAKGRNRQAPGKERELVAGITSSGGDTYYADSVKGRFTISRDNAKNTVYLLMNSLKPEDTAVYYCAADWWVLGQLWFDYWGHGTQVTVSS | low polyreactivity
QVQLLESGGGLVQAGGSLRLSCAASASTFWFYAMGWYIQAPGKERELVAAISSTGSTNYADSVKGRFTISRDNAKNTVYLQMNSLKPEDTAVYYCATQEGPHKLDPRGYYWGQGTQVTVSS | low polyreactivity
QVQLVESGGGLVQAGGSLRLSCAASGRTFPGNSMGWYRQAPGKERELVAAISWSGTRTYYADSVKGRFTISRDNAKNTVYLQMNSLKPEDTAVYYCNVVVKGAWDYYPYDYCGQGTQVTVSS | high polyreactivity
QVQLVESGGGLVQAGGSLRLSCAASGRTFEYNDMGWYRQSPGKERELVAAISWRGTSTYYADSVKGRFTISRDNAKNTVYLQMNSLKPEDTAVYYCAADYSYSFYYAYYWGQGTQVTVSS | high polyreactivity
QVQLVESGGGLVQAGGSLRLSCAASGSTFAPYAMGWYRQAPGKERELVAVISSAGSTYYADSVKGRFTLSRDNAKNTDYLQRNSLKPEDTAVYYCAARAPSSISQSRGMYYWGQATQVTVSS | high polyreactivity
QVHIVESGGGLVQAGGSLRLSCAASGLIFYLYTRGWSRQATGKERELVAAISRSGTITYYADSVKGRFTISRDNAKNTVYLQMNSLKPEDTAVYYCAATYTYIIGTRYDYWGQGTQVTVSS | high polyreactivity
QVQLVESGGGLVQAGGSLRLSCAASGSTFTWNVMGWYREAPGKERELVAAIDGSGGDTYYADSVKGRFTISRDHAKNTVYLQMNSLNPEDTAVYYCAAEDAAAYSENDYWGQGTQVTVSS | low polyreactivity
QVQLQEGGGLVQAGGSLRLSCAASGYISSRPAMGWYRQAPGLERAFVATIADGTSTDYADSVKGRFTISRDNAKNTVYLQMYRLQPEDTAVNYCAAAYNTQYYLSYWGQGTQVTVRS | high polyreactivity
QVQLVESGGGLVQAGGSLRLSCAASGRTFAGNAMGWYRPAPGTERELVADITRGGGSTYYADSVKGRFTISRDNAKNTVYLQMNSLKPEDTAVYYCAAATAFYYFISEYDYWGQGTQVTVSS | high polyreactivity
QVQLVESGGGLFQAGGSLRLSCAASGFTFPHYMGWYRQAPGKERELVAAINVSGGSTSYADSVKGRFSISRDNAKNTVYLQMNSLKPEDTGVYFCAKDLRFRLFSYPSDYWGQGTQVTVSS | low polyreactivity
QVQLVESGGGLVQAGGSLRLSCAASGSIFGIYAMGWYRQAPGKERELVAAIRVSDGRTYYADSVKGRFTISRDNAKNTVYLQMNSLKPEDTAVYYCAAESQSSYGPYDYWGQGTQVTVSS | low polyreactivity
QVHLVESGGGLVQAGGSLRLSCAATGRIFVPYVMGWYRQAPGKERELVASISDSDTSTYYADSVKGRFTISRDNAKNTVYLQMNSLKPEDNAVYYCNVDYWGQGTQVTVSS | low polyreactivity
QVQLVESGGGLVQAGGSLRLSCSASGRIFAAYAMGWYRQAPGKERELVATITRGGSTYYADSVKGRFTISRDNAKNTVYLQMNSLKPKDTAVYYCAVKRGFTQYKPFNYWGQGTQVTVSS | high polyreactivity
